{"source": "the nanobody polyreactivity screen of Harvey et al. (2022)"}
{"test": "yeast display, Sf9 membrane polyspecificity reagent, FACS + sequencing; frameworks hold sequencing errors", "procedure,_shortened": "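Polyreactivity labels are assigned by the sorting gate from which each nanobody was recovered. The gates were low and high (top ~1%), set on anti-HA fluorescence for expression and streptavidin fluorescence for reagent binding. Before sorting, galactose-induced (36–48 hours) yeast display cells were stained for 1 hour at 4 °C with 10% biotinylated, detergent-solubilized Sf9 membrane reagent.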"}
{"sequence": "QVQLVESAAGLVQAGASLRLSCAPSGSIFSGNALGWSRQAPGKARELVAAISQNGGRTYYADSVKGRFTISRDYAKNTVYLQMNILKPDDTAVYYCAALAVRFYSSYDYWGQGTQVTVSS", "polyreactivity (PSR sort gate)": "high polyreactivity"}
{"sequence": "QVQLVESGGGLVQAGGSLRLSSAASGFTFYLNALGGYRQAPGKERELVAAISSSGGITYYADSVKGRFTISRDNAKNTVYLQMNSLKPEYTAVYYCAAYWPKYRYEADRDYWGQGTQVTVSS", "polyreactivity (PSR sort gate)": "low polyreactivity"}
{"sequence": "QVQLVESGGGLVQAGGSLRLSCAASGRIFRVYAMGWYRQAPGKERELVAAITRGGSTYYADSVKGRFTISRDNAKNTVYLQMNSLKPEDTAVYYCAARTWHRYDYWGQGTQVTVSS", "polyreactivity (PSR sort gate)": "high polyreactivity"}
{"sequence": "QVQLVESGGGLVQAGGSLRLSCAASGSIFKYYTIGWYRQAPGKERELVAAISWSGGRTYYADSVKGRFTISRDIAKNTVYLQMNSLKPEDTAVYYCAKYVSYSRTLYDYWGQGTKVTVSS", "polyreactivity (PSR sort gate)": "high polyreactivity"}
{"sequence": "QVQIVESGGGLVQAGGSLRLSCAASGSIFGTYAMGRYRQAPGKERELVAAINSGDSTYYADSVKGRFTISRDNAKNTVYLQMNSLKPEDTAVYYCGARETYWSGYFIYYYWGQGTQVNVSS", "polyreactivity (PSR sort gate)": "high polyreactivity"}
{"sequence": "QVQLVESGGGLVQAGGSLRLSCAASGRIIQGYAIGWYRQAPGKERELVDAIRSGSGSTYYADSVKGRFTISRDNAKNTVYLQMNSLKPEDTAVYYCAADRYYWGQGTQVTVSS", "polyreactivity (PSR sort gate)": "low polyreactivity"}
{"sequence": "QVQLVESGGGLVQEGGSLRLICAASGRTFVYNTMGWYRQAPGKERELVAAITRSGDSTYDADSVKGRFTISRDTAKITVYIHMKSLKPDDTGVYYCNAVSNRYWLKDYWGQGTQVTVSS", "polyreactivity (PSR sort gate)": "high polyreactivity"}
{"sequence": "QVQLVESGGGLVQAGGSLRLSCAASGRIFSANAMGWYRQAPGKERELVAISWTGGSTYYADSVKGRFTISRDNAKNTVYLQMNSLKPEDTAVYYCAKERYGKYFGSVDYWGQGTQVTVSS", "polyreactivity (PSR sort gate)": "low polyreactivity"}
{"sequence": "QVQLVESGGGLVQAGGSLRLSCAASGRTFYLYAMGWYRQAPGKERELVAAITSAGSTNYADSVKGRFTISRDNAKNTVYLQMNSLKPEDSAVYYCNAYKRGYLYRYNYWGQGTQVTLSS", "polyreactivity (PSR sort gate)": "high polyreactivity"}
{"sequence": "QVQLVESGGGLVQAGGSLRLSCAASGRIFAYYAMGWYRQAPGKERELVAAITWRGGRTYYADSVKGRFTISRDNAKTTVYLQMNSLKPEDTAVYYCAARGYYSTYKLATDDYWGQGTQVTVSS", "polyreactivity (PSR sort gate)": "high polyreactivity"}
{"sequence": "QVQLVESGGGLVQAGGSLRLSCAASGLTFRKYAMGWYRQAPGKERELVATISRNGGSTYFADSVKGRFTISRDNAKNTVYLQMNSLKPEDTAVYYCAADYYTYDYAGYGYWGQGTQVTVSS", "polyreactivity (PSR sort gate)": "high polyreactivity"}
{"sequence": "QVQLVESGGGLVQAGGSLRLSCAASGFIFGGYAMGWYRQAPGKERELVAAISRSGGSTYYADSVKGRFTISRDNGKNTLNLKMNSLKREDTAVYYCNAVPRRQGFNYWGQGTQVTVSS", "polyreactivity (PSR sort gate)": "high polyreactivity"}
{"sequence": "QVQLVESGGCLFQAGGSLRLSCAASGFIFGHNAMGWYRQAPGTERELVAAITWSGGRTYYADSVKGRFTISRDNAKNTVYLQMISLKPEDKAVDYCNRRGRWRKYDYWGQGTQVTVSS", "polyreactivity (PSR sort gate)": "high polyreactivity"}
{"sequence": "QVQLVESGGGLVQAGGSLRLSCAASGYTFSYYTMGRYLQAPGKERELVAVITSAGGTYFADSVKGRFTISRDNAKNTVYLQMNSLKPEDTAVYYCAAERWADYVWIFIDDYDYLGQGTQVTVSS", "polyreactivity (PSR sort gate)": "low polyreactivity"}
{"sequence": "QVQLVESGGGLVQAGGSLRLICAASGRTYLWYTMGWYRQAPGKEREFVAAIWSGDSTYYADSVKGRFTISRDNAKNTVYLQMNSLKPEDTAVYYCAARRFRGSYYWGQGTQVTVSS", "polyreactivity (PSR sort gate)": "high polyreactivity"}
{"sequence": "QVQLVESGGGLVQAGGSLRLSCAASGRIFDRYAMGWYREAPGKERELVAAISGSGGRTYYADSVKGRFTISRDNAKNTVYLQMNSLKPEDTAVYYCAVKFSLYGQGYPKGDYWGQGTQVTVSS", "polyreactivity (PSR sort gate)": "high polyreactivity"}
{"sequence": "QVQLQESGGGLVQAGGSLRLSCAASSNNSTLDVKGWYRQAPGKEREFVASIGSGGITNYADSVKGRFTISRDNAKNTVYLQMNSLKPEDTAVYYCAVLNQAYTDLIYWGQGTQVTVSS", "polyreactivity (PSR sort gate)": "high polyreactivity"}
